For one substance, EC50 (read off the curve) results are on record in US20230265146A1.

Where “and” joins values, the source holds several entries; their conditions need not be identical. Equal entries are not always repeated.

The target of this assay is human IL-12 receptor on HEK-Blue IL-12 reporter cells (human) (UniProt P42701).
Sequence of human IL-12 receptor on HEK-Blue IL-12 reporter cells (human) (Q99665 24-862, chain 2 of 2, other chains not shown): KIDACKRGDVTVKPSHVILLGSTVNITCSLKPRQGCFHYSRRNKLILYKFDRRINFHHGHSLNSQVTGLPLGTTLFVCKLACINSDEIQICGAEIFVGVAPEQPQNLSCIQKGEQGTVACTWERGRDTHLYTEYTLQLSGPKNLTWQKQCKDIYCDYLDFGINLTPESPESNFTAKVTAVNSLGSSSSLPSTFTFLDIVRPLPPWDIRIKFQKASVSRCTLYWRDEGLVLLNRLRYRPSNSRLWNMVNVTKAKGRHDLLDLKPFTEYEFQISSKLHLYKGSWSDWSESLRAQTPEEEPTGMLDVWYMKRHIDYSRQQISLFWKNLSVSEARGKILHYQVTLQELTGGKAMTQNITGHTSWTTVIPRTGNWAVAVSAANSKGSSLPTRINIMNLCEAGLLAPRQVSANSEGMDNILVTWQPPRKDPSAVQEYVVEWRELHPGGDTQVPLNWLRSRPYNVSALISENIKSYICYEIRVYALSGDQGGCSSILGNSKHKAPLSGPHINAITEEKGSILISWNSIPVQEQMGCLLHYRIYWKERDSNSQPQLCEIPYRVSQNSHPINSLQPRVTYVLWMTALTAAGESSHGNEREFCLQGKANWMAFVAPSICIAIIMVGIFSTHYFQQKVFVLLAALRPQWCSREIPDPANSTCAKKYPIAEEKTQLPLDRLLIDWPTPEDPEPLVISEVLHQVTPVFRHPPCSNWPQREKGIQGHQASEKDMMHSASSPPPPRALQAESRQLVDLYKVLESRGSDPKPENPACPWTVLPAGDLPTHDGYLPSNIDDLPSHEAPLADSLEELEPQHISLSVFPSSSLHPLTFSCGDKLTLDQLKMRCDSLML

As for IL12 (ligand), the EC50 (read off the curve) is 90 pM and 50 pM.
